Test results published in publication PMC10397247.
Values belong to the binder of their own block, whether it stands above or below them.

Legend:
4H675-AA = target: T1, 4H675-AA; assay: two-hybrid library CCmax; settings: mean of both orientations;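 note: natural log of median RNA to DNA barcode read ratio; higher means stronger binding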
T1 chain: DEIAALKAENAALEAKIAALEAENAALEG

4H478-AA = target: T2, 4H478-AA; assay: two-hybrid library CCmax; settings: mean of both orientations;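 note: natural log of median RNA to DNA barcode read ratio; higher means stronger binding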
T2 chain: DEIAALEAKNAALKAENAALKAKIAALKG

4H3446-AA = target: T3, 4H3446-AA; assay: two-hybrid library CCmax;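 note: natural log of median RNA to DNA barcode read ratio; higher means stronger binding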
T3 chain: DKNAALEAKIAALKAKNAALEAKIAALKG

4H428-AA = target: T4, 4H428-AA; assay: two-hybrid library CCmax; settings: mean of both orientations;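 note: natural log of median RNA to DNA barcode read ratio; higher means stronger binding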
T4 chain: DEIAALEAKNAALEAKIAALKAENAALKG

4H971-AA = target: T5, 4H971-AA; assay: two-hybrid library CCmax; settings: mean of both orientations;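 note: natural log of median RNA to DNA barcode read ratio; higher means stronger binding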
T5 chain: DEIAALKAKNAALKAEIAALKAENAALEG

4H497-AA = target: T6, 4H497-AA; assay: two-hybrid library CCmax; settings: mean of both orientations;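 note: natural log of median RNA to DNA barcode read ratio; higher means stronger binding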
T6 chain: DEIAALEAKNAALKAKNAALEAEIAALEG

4H3666-AA = target: T7, 4H3666-AA; assay: two-hybrid library CCmax; settings: mean of both orientations
T7 chain: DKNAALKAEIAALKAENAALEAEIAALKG

4H656-AA = target: T8, 4H656-AA; assay: two-hybrid library CCmax; settings: mean of both orientations
T8 chain: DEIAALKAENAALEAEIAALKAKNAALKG

4H3939-AA = target: T9, 4H3939-AA; assay: two-hybrid library CCmax; settings: mean of both orientations
T9 chain: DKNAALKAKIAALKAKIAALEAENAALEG

4H391-AA = target: T10, 4H391-AA; assay: two-hybrid library CCmax; settings: mean of both orientations
T10 chain: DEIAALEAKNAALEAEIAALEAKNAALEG

4H3709-AA = target: T11, 4H3709-AA; assay: two-hybrid library CCmax; settings: mean of both orientations
T11 chain: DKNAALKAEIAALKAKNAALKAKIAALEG

4H3920-AA = target: T12, 4H3920-AA; assay: two-hybrid library CCmax; settings: mean of both orientations
T12 chain: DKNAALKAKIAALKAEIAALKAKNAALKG

4H3591-AA = target: T13, 4H3591-AA; assay: two-hybrid library CCmax; settings: mean of both orientations
T13 chain: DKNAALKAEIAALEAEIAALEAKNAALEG

4H3628-AA = target: T14, 4H3628-AA; assay: two-hybrid library CCmax; settings: mean of both orientations
T14 chain: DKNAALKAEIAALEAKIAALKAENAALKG

4H3627-AA = target: T15, 4H3627-AA; assay: two-hybrid library CCmax; settings: mean of both orientations
T15 chain: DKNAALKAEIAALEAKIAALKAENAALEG

4H3606-AA = target: T16, 4H3606-AA; assay: two-hybrid library CCmax; settings: mean of both orientations
T16 chain: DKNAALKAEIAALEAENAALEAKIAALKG

4H335-AA = target: T17, 4H335-AA; assay: two-hybrid library CCmax; settings: mean of both orientations
T17 chain: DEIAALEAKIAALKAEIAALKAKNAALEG

4H605-AA = target: T18, 4H605-AA; assay: two-hybrid library CCmax; settings: mean of both orientations
T18 chain: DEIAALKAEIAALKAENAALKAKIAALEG

4H2883-AA = target: T19, 4H2883-AA; assay: two-hybrid library CCmax; settings: mean of both orientations
T19 chain: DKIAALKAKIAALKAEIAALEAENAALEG

4H678-AA = target: T20, 4H678-AA; assay: two-hybrid library CCmax; settings: mean of both orientations
T20 chain: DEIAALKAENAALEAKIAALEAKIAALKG

4H3427-AA = target: T21, 4H3427-AA; assay: two-hybrid library CCmax; settings: mean of both orientations
T21 chain: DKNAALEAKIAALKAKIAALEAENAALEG

4H993-AA = target: T22, 4H993-AA; assay: two-hybrid library CCmax; settings: mean of both orientations
T22 chain: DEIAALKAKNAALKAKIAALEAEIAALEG

4H48-AA = target: T23, 4H48-AA; assay: two-hybrid library CCmax; settings: mean of both orientations
T23 chain: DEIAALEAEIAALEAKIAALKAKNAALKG

4H3921-AA = target: T24, 4H3921-AA; assay: two-hybrid library CCmax; settings: mean of both orientations
T24 chain: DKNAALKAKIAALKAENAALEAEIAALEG

4H906-AA = target: T25, 4H906-AA; assay: two-hybrid library CCmax; settings: mean of both orientations
T25 chain: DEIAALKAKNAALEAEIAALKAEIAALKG

4H317-AA = target: T26, 4H317-AA; assay: two-hybrid library CCmax; settings: mean of both orientations
T26 chain: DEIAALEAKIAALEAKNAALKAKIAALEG

4H2642-AA = target: T27, 4H2642-AA; assay: two-hybrid library CCmax
T27 chain: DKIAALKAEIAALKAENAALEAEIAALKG

4H342-AA = target: T28, 4H342-AA; assay: two-hybrid library CCmax; settings: mean of both orientations
T28 chain: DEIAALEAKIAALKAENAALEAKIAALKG

4H3112-AA = target: T29, 4H3112-AA; assay: two-hybrid library CCmax; settings: mean of both orientations
T29 chain: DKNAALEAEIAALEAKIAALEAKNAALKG

4H3655-AA = target: T30, 4H3655-AA; assay: two-hybrid library CCmax; settings: mean of both orientations
T30 chain: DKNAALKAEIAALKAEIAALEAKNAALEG

4H2949-AA = target: T31, 4H2949-AA; assay: two-hybrid library CCmax; settings: mean of both orientations
T31 chain: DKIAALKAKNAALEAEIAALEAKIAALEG

4H2754-AA = target: T32, 4H2754-AA; assay: two-hybrid library CCmax; settings: mean of both orientations
T32 chain: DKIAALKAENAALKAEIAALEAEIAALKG

4H566-AA = target: T33, 4H566-AA; assay: two-hybrid library CCmax; settings: mean of both orientations
T33 chain: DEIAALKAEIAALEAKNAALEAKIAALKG

4H2944-AA = target: T34, 4H2944-AA; assay: two-hybrid library CCmax; settings: mean of both orientations
T34 chain: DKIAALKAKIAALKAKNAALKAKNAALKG

4H717-AA = target: T35, 4H717-AA; assay: two-hybrid library CCmax; settings: mean of both orientations
T35 chain: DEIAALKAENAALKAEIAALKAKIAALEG

4H881-AA = target: T36, 4H881-AA; assay: two-hybrid library CCmax; settings: mean of both orientations
T36 chain: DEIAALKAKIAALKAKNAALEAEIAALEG

4H780-AA = target: T37, 4H780-AA; assay: two-hybrid library CCmax; settings: mean of both orientations
T37 chain: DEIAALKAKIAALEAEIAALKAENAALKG

4H794-AA = target: T38, 4H794-AA; assay: two-hybrid library CCmax; settings: mean of both orientations
T38 chain: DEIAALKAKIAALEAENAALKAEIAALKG

4H3844-AA = target: T39, 4H3844-AA; assay: two-hybrid library CCmax; settings: mean of both orientations
T39 chain: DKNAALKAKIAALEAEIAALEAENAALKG

4H2837-AA = target: T40, 4H2837-AA; assay: two-hybrid library CCmax; settings: mean of both orientations
T40 chain: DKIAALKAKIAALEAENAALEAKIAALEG

4H429-AA = target: T41, 4H429-AA; assay: two-hybrid library CCmax; settings: mean of both orientations
T41 chain: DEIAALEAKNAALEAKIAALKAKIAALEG

4H454-AA = target: T42, 4H454-AA; assay: two-hybrid library CCmax; settings: mean of both orientations
T42 chain: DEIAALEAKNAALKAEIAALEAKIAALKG

4H3343-AA = target: T43, 4H3343-AA; assay: two-hybrid library CCmax; settings: mean of both orientations
T43 chain: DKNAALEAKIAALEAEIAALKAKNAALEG

4H2729-AA = target: T44, 4H2729-AA; assay: two-hybrid library CCmax; settings: mean of both orientations
T44 chain: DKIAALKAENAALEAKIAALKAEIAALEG

4H968-bA = target: T45, 4H968-bA; assay: two-hybrid library CCNG1
T45 chain: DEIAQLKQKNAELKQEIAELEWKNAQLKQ

4H953-bA = target: T46, 4H953-bA; assay: two-hybrid library CCNG1
T46 chain: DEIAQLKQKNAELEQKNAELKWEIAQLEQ

4H967-bA = target: T47, 4H967-bA; assay: two-hybrid library CCNG1
T47 chain: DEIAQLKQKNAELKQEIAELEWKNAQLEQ

4H918-bA = target: T48, 4H918-bA; assay: two-hybrid library CCNG1
T48 chain: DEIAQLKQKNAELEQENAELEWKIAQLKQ

4H908-bA = target: T49, 4H908-bA; assay: two-hybrid library CCNG1
T49 chain: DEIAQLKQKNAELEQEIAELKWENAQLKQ

4H855-bA = target: T50, 4H855-bA; assay: two-hybrid library CCNG1
T50 chain: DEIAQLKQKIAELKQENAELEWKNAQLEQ

4H797-bA = target: T51, 4H797-bA; assay: two-hybrid library CCNG1
T51 chain: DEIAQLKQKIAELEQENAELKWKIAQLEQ

4H883-bA = target: T52, 4H883-bA; assay: two-hybrid library CCNG1
T52 chain: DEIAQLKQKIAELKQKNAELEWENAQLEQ

interaction score (4H675-AA): -0.821
interaction score (4H478-AA): -1.66
interaction score (4H3446-AA): -0.619
interaction score (4H428-AA): -0.892
interaction score (4H971-AA): -1.14
interaction score (4H497-AA): -1.57
interaction score (4H3666-AA): 0.18
interaction score (4H656-AA): -0.701
interaction score (4H3939-AA): -1.83
interaction score (4H391-AA): 0.726
interaction score (4H3709-AA): -0.0647
interaction score (4H3920-AA): -1.52
interaction score (4H3591-AA): -0.816
interaction score (4H3628-AA): -1.96
Binder: DKNAALEAKIAALKAKNAALEAKIAALKG [4H3446-AA]

interaction score (4H3627-AA): -1.58
interaction score (4H3606-AA): -0.298
interaction score (4H335-AA): -1.02
interaction score (4H605-AA): 1.36
interaction score (4H2883-AA): -0.642
interaction score (4H678-AA): -1.06
interaction score (4H3427-AA): -1.25
interaction score (4H993-AA): 1.73
interaction score (4H48-AA): -0.661
interaction score (4H3921-AA): -1.11
interaction score (4H906-AA): -1.72
interaction score (4H317-AA): 1.06
interaction score (4H2642-AA): 2.07
interaction score (4H342-AA): 1.85
interaction score (4H3112-AA): -1.11
interaction score (4H3655-AA): -1.24
interaction score (4H2949-AA): -0.263
interaction score (4H2754-AA): -1.08
interaction score (4H566-AA): 1.3
interaction score (4H2944-AA): 0.299
interaction score (4H717-AA): -1.13
interaction score (4H881-AA): 0.64
interaction score (4H780-AA): -1.24
interaction score (4H794-AA): 0.96
interaction score (4H3844-AA): -1.28
interaction score (4H2837-AA): -1
interaction score (4H429-AA): -0.542
interaction score (4H454-AA): 0.982
interaction score (4H3343-AA): -1.7
interaction score (4H2729-AA): -0.868
Binder: DKIAALKAEIAALKAENAALEAEIAALKG [4H2642-AA]

interaction score (4H968-bA): -1.67
interaction score (4H953-bA): -0.848
interaction score (4H967-bA): -0.372
interaction score (4H918-bA): 0.787
interaction score (4H908-bA): -0.499
interaction score (4H855-bA): 0.572
interaction score (4H797-bA): 0.406
interaction score (4H883-bA): -0.129
Binder: DEIAQLKQKIAELEQENAELKWKIAQLEQ [4H797-bA]
